Test results reported in paper PMC4788688, “Chemical shift assignment of the alternative scaffold protein IscA” (Biomolecular Nmr Assignments, 2016).

Target: the molecule itself
Assay: SEC; purified IscA in 20 mM Tris-HCl with 20 mM DTT or 5 mM TCEP; chromatograms showed no significant differences at 50, 150 or 1000 mM NaCl; self-association into dimers and higher species

B1: E. coli IscA protein (cluster-free) (natural protein)
chain: MSITLSDSAAARVNTFLANRGKGFGLRLGVRTSGCSGMAYVLEFVDEPTPEDIVFEDKGVKVVVDGKSLQFLDGTQLDFVKEGLNEGFKFTNPNVKDECGCGESFHV
notes: IscA of E. coli, recombinant, printed length 107 residues (11.5 kDa); cluster-free; 15N- or 13C/15N-labelled for NMR; also called alternative scaffold protein IscA; source: E. coli BL21 (DE3), pETM30 vector, purified (DEAE and Q anion exchange, Superdex 75 size exclusion)
Question: Does B1 bind?
Answer: binds
